In this assay the target is Gp45, receptor binding protein (RBP) of Staphylococcus aureus phage ϕ11 (Staphylococcus aureus phage ϕ11). As to the kind of experiment: crystal structure; native crystals, space group P1, 2.20 Å; grown in 0.1 M bicine/Trizma base pH 8.5, 10% w/v PEG 8000, 20% v/v ethylene glycol, 0.12 M monosaccharide-mix at 16 °C; three monomers related by non-crystallographic three-fold symmetry.

Take “Gp45, receptor binding protein (RBP) of Staphylococcus aureus phage ϕ11 (natural protein)”: the stoichiometry N is 3.

For the origin of these results see article PMC4901313.
